Experimental data as given in PMC9209526 (Nature Communications, 2022).
Positions count from the first letter of the chain named. Names may count otherwise.

Legend:
[1] = target: T1, N4posAbl (Abl kinase domain with N-terminal KRKKSGG tag) (Homo sapiens, UniProt P00519); test: ClyA-AS nanopore tweezers single-channel current recording: ligand binding to N4posAbl
T1 sequence (P00519 229-512): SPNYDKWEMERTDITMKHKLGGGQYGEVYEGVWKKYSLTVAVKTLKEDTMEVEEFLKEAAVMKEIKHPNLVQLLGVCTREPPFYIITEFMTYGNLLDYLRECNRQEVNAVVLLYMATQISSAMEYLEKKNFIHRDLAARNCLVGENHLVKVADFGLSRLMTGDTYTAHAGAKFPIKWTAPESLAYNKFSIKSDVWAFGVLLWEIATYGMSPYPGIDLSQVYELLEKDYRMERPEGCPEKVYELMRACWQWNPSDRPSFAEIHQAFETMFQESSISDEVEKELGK

[2] = target: T2, N4posG321V (Abl kinase domain hinge mutant) (Homo sapiens, UniProt P00519, G321V); test: ClyA-AS nanopore tweezers single-channel current recording: ligand binding to N4posG321V
T2 construct: His10-TEV (N, cleaved yes); made in house; host or cells: E. coli BL21(DE3)pLysS, co-expressed with YopH phosphatase
T2 sequence (P00519 229-512 G321V): T1 sequence (P00519 229-512) with G93V

[3] = target: Abl kinase; conditions: read-out: reported KD of ATP; cited from earlier work
[4] = target: T3, N4posAbl: wildtype Abl kinase domain (residues 229-512) with a positively charged peptide tail (N4pos tag, … (human, UniProt P00519 229-512)); test: ClyA nanopore tweezers (single-channel current recording); single Abl kinase molecule trapped in a ClyA-AS nanopore in a DPhPC bilayer; Abltide titrated with 10 mM MgCl2; occupancy of the bound state against concentration fitted with a single site binding model; -80 mV, 150 mM NaCl, 100 mM Tris-HCl, pH 7.5, 22 °C, ~100 nM kinase in cis; conditions: both partners purified
T3 sequence (looked up): T1 sequence (P00519 229-512)

[5] = target: T4, N4posG321V: Abl kinase domain (residues 229-512) hinge mutant G321V with the N4pos tag (KRKKSGG) at its … (human, UniProt P00519 229-512, G321V); test: as above; conditions: both partners purified
T4 construct: also called Abl G321V
T4 sequence (looked up): T1 sequence (P00519 229-512) with G93V

[6] = target: T5, kinase substrate peptide Abltide (Homo sapiens, UniProt P00519); test: Enzyme-coupled Abl kinase assay (NADH consumption), Michaelis-Menten kinetics; assay type: biochemical
T5 sequence (P00519 229-512): T1 sequence (P00519 229-512)
Protocol: (§1) Absorbance at 340 nm was monitored with a microtiter plate spectrophotometer (BioTek Synergy 2) for 30 min. The background kinase activity was determined in the reaction mix without the substrate peptide and subtracted from the experiments with the substrate peptide. To obtain the enzyme kinetics, initial phosphorylation rates at different substrate peptide concentrations (50~800 µM) were measured. Plots of the initial rate as a function of peptide substrate concentration were fit by nonlinear regression to obtain the Michaelis-Menten kinetic parameters.

[7] = tested on: kinase substrate peptide Abltide; test: as above; assay type: biochemical; conditions: for Vmax / kcat: Abltide 50~800 µM, […] ATP, 30 nM kinase, 30 °C; for catalytic activity: Michaelis-Menten kinetic analysis
Protocol: as §1

[8] = Conformational state analysis of apo Abl kinases in ClyA-AS nanopore (S1/S2 and S1 sub-state dwell times, populations, rate constants, free energy); set-up: species or system human

With `[Cl-].[Cl-].[Mg+2]` [MgCl2] the “effect on N4posAbl current signal / conformational states” value [1] was “did not trigger any noticeable change”.

In the case of ATP, the “effect on N4posG321V current trace” value [2] is given as “did not trigger any change in the current trace” and the Kd [3] is given as 69 ± 4 µM.

B1: kinase substrate peptide Abltide (peptide)
peptide: KKGEAIYAAPFA
notes: Abl substrate peptide Abltide
Work on B1 yielded a Kd [4] of 69.9 ± 13 µM and a Kd [5] of 257 ± 55.9 µM.

B2: Abl: wildtype Abl kinase domain (residue 229-512) (protein)
chain: T1 sequence (P00519 229-512)
Work on B2 yielded a kcat [6] of 7.1 ± 0.7 s⁻¹, a Vmax [7] of 12.8 ± 1.3 µM/min and a kcat [7] of 7.112 ± 0.717 s⁻¹.

B3: N4posG321V: N4posAbl hinge mutant G321V intended to enhance rigidity; catalytically inactive (protein)
chain: T1 sequence (P00519 229-512) with G93V
With B3 the catalytic activity [7] was “abrogated the catalytic activity”, the τS1 ([8]; N4posG321V, 16 pores, single S1 dwell events) was 1005.56 ms and the “τS1 (ms), 16 pores” value ([8]; N4posG321V, individual S1 dwell times, 16 pores) was 214.2 ms.

B4: N4posAbl: Abl kinase domain with positively charged peptide tail KRKKSGG at its N-terminus (protein)
chain: T1 sequence (P00519 229-512)
With B4 the Vmax [7] was 13.3 ± 1.1 µM/min, the kcat [7] was 7.395 ± 0.585 s⁻¹ and the catalytic activity [7] was “no influence on the catalytic activity”. It also gave a τS1 ([8]; N4posAbl, pore #1, single S1 dwell events) of 443.75 ms, a τS1 ([8]; N4posAbl, pore #3, single S1 dwell events) of 1114.75 ms and a τS2 ([8]; N4posAbl, pore #3, single S2 dwell events) of 3255.5 ms.
